This is an account of results in patent publication US8993719B2, “Methods and compositions related to mutant Kunitz domain I of TFPI-2” (The Regents of the University of California, priority 2005, dated 2015).

Experiment [1] has as its target Mouse plasmin (mouse, UniProt P20918 98-812, limits assumed). The experiment in a line: mouse plasmin inhibition assay.
The target in experiment [2] is T1, Human plasmin (Homo sapiens, UniProt P00747).
T1 construct: purchased Enzyme research laborotories
Kind of experiment: Plasmin inhibition assay (residual amidolytic activity, chromogenic substrate S-2251). Conditions: for fold stronger binding to plasmin than WT KD1: relative to WT KD1. In kind it is biochemical. The text has this:
Materials and methods: The chromogenic substrates H-D-Val-Leu-Lys-p-nitroanilide (S-2251) was purchased from DiaPharma Group Inc. (West Chester, Ohio). Human plasmin was purchased from Enzyme research laborotories. Bovine aprotinin (BPTI) was used from Zymogenetics. Escherichia coli strain BL21(DE3)pLys and pET28a expression vector were products of Novagen Inc. (Madison, Wis.). The QuikChange® site-directed mutagenesis kit was obtained from Stratagene (La Jolla, Calif.).
(§1) Plasmin Inhibition Assays. […] The chromogenic substrate S-2251 was then added, and residual amidolytic activity was measured in a Molecular Devices UVmax kinetic microplate reader at different end points (0.5 and 1 hr) and S2251 (0.5 and 1 mM) concentrations. Plasmin inhibitory data were analyzed according to the quadratic binding expression.

The target in experiment [3] is mouse plasmin (Mus musculus, UniProt P20918). The experiment in a line: Mouse plasmin inhibition. In kind it is biochemical. To be noted: 1 μM inhibitor; FIG. 6. The text has this:
Both WT KD1 and L26R inhibited mouse plasmin effectively. […] Since both the wild-type and the mutant inhibit mouse plasmin, one can use the mutant to show efficacy in vivo in an animal model of bleeding.

Experiment [4] relates to intrinsic pathway of blood coagulation. Kind of experiment: aPTT (activated partial thromboplastin time) of normal plasma. In kind it is biochemical. To be noted: normal human plasma, 5 min at 37° C., FIG. 5. On the procedure:
Seventy-five microliter of 25 mM CaCl2 prewarmed to 37° C. was then added and the time needed to form the clot through the intrinsic pathway of blood coagulation was noted.
A common procedure to test inhibition of clotting is to examine the aPTT (activated partial thromboplastin time) of normal plasma. In this test, surface activator plus phospholipid was mixed with normal plasma in equal amounts (75 microliter). […] Seventy-five microliter of 25 mM CaCl2 prewarmed to 37° C. was then added and the time needed to form the clot was noted.
In the aPTT system, coagulation is initiated by the activation of factor XII to Factor XIIa by contact phase involving the kallikrein system. Factor XIIa then activates factor XI to factor XIa in the coagulation cascade.

Experiment [5] concerns mouse tail vein bleeding model. The experiment in a line: Mouse tail vein bleeding model. Conditions: intravenously, about 100 microgram/mouse, compared to saline control. The format is in vivo. The text has this:
A mouse tail vein bleeding model has been described to study the efficacy of a snake plasmin inhibitor (Masci et al. Blood Coagulation and Fibrinolysis 2000, Vol 11, pages 385-393). […] The doses of the plasmin inhibitors used in these experiments were similar to that used during human CPB (cardiopulmonary bypass) surgery, adjusted to the mouse weight. The Animal Ethics Committee of UCLA approved all mice experiments and the dose used in human surgery adjusted to mouse weight was a realistic basis for these initial studies. The serum BUN/Creatinine levels were normal after two days and seven days following administration of the drug.

In another experiment the target is kallikrein (Homo sapiens, UniProt P03952). Conditions: Petersen et al 1996; cited from earlier work.
For the next experiment, the target named is factor XIa (Homo sapiens, UniProt P03951). Conditions: Petersen et al 1996; cited from earlier work.
Experiment [6] addresses T2, Human plasmin (human, UniProt P00747 97-810, limits assumed).
T2 construct: Bought enzyme
Kind of experiment: plasmin inhibition assay, residual amidolytic activity on S-2251. On the procedure: as §1
In control experiments, it was first studied if there was any substrate-induced displacement of bound inhibitor by increasing substrate concentrations.

Experiment [7] addresses T2, Human plasmin. Kind of experiment: plasmin inhibition assay, residual amidolytic activity on S-2251, quadratic binding fit. How it is done: as §1
(§2) The incubation time was 1 hr at 37° C. and substrate concentration was 1 mM for the remaining activity measurements.

For experiment [8], the target named is T2, Human plasmin. Kind of experiment: plasmin inhibition assay, 1 hr at 37° C., 1 mM S-2251. On the procedure: as §1, §2

Substitutions are numbered along the chain they refer to. Names may count otherwise. “And” between values parts separate entries of the source, which are not always exact repeats. Identical values can stand only once. “Also recorded” adds a separate entry of the source.

T1 sequence (P00747 581-810 limits assumed): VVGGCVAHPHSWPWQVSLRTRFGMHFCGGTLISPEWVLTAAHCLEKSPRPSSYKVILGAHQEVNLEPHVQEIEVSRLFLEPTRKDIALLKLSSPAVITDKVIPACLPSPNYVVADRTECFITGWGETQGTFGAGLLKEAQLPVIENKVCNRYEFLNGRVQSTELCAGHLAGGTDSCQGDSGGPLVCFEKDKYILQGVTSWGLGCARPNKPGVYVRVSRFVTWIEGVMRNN
T1 sequence (P00747 97-580 partner limits assumed): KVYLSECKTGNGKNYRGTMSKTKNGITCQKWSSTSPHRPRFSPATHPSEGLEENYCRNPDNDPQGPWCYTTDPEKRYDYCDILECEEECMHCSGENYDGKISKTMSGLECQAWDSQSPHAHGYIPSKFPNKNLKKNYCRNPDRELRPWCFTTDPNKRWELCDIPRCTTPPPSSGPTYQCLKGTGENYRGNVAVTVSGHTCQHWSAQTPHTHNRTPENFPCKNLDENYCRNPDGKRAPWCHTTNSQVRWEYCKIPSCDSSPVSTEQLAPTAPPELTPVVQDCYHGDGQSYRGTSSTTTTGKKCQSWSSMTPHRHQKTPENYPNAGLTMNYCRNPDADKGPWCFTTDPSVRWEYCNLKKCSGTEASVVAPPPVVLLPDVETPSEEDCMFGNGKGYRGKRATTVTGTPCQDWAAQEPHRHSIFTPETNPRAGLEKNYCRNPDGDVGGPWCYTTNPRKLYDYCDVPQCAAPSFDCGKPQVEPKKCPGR
T2 sequence (P00747 97-810 limits assumed): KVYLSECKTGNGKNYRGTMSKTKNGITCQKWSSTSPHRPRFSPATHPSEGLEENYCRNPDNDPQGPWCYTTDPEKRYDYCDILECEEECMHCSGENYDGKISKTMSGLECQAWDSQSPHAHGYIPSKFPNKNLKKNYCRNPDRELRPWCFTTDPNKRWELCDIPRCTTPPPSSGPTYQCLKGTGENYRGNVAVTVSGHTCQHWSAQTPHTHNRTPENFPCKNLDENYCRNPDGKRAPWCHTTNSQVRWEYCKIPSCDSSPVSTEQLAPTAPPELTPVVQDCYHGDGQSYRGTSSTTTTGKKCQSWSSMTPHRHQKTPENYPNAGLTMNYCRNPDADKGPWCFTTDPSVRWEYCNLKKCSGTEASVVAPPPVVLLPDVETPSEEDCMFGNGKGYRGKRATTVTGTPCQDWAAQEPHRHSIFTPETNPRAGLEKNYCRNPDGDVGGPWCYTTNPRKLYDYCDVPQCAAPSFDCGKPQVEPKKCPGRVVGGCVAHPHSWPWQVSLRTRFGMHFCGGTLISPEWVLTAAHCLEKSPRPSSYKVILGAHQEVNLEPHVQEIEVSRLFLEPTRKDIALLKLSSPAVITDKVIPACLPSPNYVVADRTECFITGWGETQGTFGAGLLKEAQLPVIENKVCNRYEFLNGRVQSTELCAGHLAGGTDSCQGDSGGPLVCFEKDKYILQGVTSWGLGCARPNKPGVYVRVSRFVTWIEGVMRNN
mouse plasmin, sequence (P20918 582-812 limits assumed): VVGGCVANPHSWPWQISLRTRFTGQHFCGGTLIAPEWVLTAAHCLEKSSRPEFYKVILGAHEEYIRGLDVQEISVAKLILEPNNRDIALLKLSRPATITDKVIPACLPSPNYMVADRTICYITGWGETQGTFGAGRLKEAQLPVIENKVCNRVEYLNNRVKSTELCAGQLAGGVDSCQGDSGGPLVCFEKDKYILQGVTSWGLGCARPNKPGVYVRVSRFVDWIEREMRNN
mouse plasmin, sequence (P20918 98-581 partner limits assumed): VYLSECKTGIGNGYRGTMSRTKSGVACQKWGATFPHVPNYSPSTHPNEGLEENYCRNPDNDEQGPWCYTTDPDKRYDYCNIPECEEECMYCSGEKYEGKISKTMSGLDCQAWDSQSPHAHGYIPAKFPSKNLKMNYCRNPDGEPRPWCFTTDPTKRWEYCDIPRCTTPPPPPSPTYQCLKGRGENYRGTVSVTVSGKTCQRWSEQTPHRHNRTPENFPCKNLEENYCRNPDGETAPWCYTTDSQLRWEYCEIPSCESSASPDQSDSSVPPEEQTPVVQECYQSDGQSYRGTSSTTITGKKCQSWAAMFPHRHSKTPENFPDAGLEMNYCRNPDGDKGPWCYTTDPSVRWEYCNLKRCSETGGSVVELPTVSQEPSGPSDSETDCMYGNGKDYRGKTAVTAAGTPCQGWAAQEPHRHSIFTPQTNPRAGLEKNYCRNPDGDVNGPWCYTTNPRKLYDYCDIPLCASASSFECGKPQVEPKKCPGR
Mouse plasmin, sequence (P20918 98-812 limits assumed): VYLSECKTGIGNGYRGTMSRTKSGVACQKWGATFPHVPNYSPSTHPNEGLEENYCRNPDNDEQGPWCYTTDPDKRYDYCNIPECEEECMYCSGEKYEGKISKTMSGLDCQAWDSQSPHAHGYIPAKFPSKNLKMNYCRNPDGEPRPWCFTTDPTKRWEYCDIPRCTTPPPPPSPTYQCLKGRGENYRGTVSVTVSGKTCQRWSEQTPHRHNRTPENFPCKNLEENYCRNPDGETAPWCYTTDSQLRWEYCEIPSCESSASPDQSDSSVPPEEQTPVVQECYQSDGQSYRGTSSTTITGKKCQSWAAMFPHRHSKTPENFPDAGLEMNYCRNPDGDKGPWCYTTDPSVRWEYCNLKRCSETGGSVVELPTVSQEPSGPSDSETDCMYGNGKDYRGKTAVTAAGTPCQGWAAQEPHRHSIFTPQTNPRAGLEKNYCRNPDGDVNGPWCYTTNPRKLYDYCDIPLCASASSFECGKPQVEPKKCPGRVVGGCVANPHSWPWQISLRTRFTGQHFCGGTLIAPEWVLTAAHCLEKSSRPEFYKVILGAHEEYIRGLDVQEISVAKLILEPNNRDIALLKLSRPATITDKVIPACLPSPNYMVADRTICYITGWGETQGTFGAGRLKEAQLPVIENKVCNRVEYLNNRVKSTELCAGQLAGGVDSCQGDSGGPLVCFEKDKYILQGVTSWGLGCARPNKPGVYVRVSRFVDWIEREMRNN
kallikrein, sequence (P03952 391-638 limits assumed): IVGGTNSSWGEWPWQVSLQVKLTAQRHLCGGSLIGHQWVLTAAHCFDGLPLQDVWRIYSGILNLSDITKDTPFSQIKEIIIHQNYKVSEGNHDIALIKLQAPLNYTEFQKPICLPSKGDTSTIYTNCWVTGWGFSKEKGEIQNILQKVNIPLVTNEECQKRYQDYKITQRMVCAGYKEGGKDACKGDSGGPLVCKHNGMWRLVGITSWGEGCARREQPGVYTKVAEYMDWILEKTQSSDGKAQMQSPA
kallikrein, sequence (P03952 20-390 partner limits assumed): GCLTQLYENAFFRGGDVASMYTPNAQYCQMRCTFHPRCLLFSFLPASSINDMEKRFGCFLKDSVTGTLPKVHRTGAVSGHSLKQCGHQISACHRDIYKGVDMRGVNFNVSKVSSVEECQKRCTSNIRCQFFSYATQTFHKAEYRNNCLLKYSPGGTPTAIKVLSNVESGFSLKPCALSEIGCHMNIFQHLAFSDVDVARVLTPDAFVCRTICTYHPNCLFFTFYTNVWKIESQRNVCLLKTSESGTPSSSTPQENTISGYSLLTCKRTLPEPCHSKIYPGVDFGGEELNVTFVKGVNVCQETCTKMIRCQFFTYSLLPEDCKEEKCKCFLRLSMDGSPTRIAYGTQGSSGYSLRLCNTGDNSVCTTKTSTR
factor XIa, sequence (P03951 388-625 limits assumed): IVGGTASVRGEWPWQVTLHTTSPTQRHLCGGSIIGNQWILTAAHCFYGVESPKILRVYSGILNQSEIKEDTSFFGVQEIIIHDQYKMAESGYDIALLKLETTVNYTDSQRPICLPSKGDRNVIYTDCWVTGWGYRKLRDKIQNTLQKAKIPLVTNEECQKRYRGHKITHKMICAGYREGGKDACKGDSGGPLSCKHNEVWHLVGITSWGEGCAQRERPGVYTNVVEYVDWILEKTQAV
factor XIa, sequence (P03951 19-387 partner limits assumed): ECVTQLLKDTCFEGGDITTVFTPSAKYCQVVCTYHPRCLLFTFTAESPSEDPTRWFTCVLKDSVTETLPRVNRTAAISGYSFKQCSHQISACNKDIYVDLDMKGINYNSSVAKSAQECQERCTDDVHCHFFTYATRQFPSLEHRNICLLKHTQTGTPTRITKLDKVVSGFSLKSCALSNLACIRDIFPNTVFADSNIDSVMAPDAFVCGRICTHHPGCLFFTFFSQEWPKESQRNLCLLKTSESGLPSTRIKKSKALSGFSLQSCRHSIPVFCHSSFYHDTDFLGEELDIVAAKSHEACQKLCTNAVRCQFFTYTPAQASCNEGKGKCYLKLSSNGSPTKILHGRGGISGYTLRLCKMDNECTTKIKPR

B1: Wild type first Kunitz-type proteinase inhibitor domain of human TFPI-2 (KD1) (other)
chain: DAAQEPTGNNAEICLLPLDYGPCRALLLRYYYDRYTQSCRQFLYGGCEGNANNFYTWEACDDACWRIEKVPKV
notes: also called WTKD1; WT KD1
Broadly, the Kd is the constant that tells how readily two partners part at equilibrium. The Ki is the equilibrium dissociation constant of an inhibitor or competing ligand from its target. A higher Ki goes with a looser hold on the target. B1: the Kd with Mouse plasmin [1] is around 80 nM; with Human plasmin [7], 22 nM. For the same molecule, the “substrate-induced displacement of bound inhibitor” value with Human plasmin [2] (increasing S-2251 concentration (0.5 and 1 mM)) is given as “apparently no displacement of bound inhibitor; also recorded: not any significant substrate induced displacement of inhibitor”. In the experiment with mouse plasmin [3], the “inhibition of mouse plasmin at 1 μM” value is reported as “Complete inhibition”. In experiment [4] (listed as KD1 WT), the “inhibition of intrinsic pathway of coagulation (prolongation of aPTT clotting time)” value is given as “prolongation of the aPTT; also recorded: inhibit the intrinsic pathway of coagulation”. Besides, the “reduction in blood loss” value in experiment [5] is 67-70%. Further, in the experiment with kallikrein, the inhibition of kallikrein entry was “inhibits both kallikrein and factor XIa”. Further, the “inhibition of factor XIa” value in the experiment with factor XIa is “inhibits both kallikrein and factor XIa”. The molecule further came in with a Ki with Human plasmin [6] of 22 nM.

B2: KD1 R15K/L17R double mutant (R24K/L26R in KD1 numbering) (other)
chain: B1 chain with R24K, L26R
notes: Made from KD1 by site-directed mutagenesis, with the His tag removed
In turn, B2 displayed a Kd in the experiment with Human plasmin [8] of 3 nM. Further, in the experiment with Human plasmin [6], the Ki was determined as 3 nM, the “fold stronger binding than WT KD1” value came to 7 fold and the “fold stronger binding than the R15K mutant” value was around 2 fold.

B3: KD1 L17R mutant (L26R in KD1 numbering) (other)
chain: B1 chain with L26R
notes: The His tag was removed; also called KD1 L26R; L26R KD1
B3: the Kd with Mouse plasmin [1] is around 80 nM. Moreover, the “fold stronger binding to plasmin than WT KD1” value with Human plasmin [2] (listed as L17R) is given as “approximately 4 fold”. Besides, the “inhibition of mouse plasmin at 1 μM” value with mouse plasmin [3] is reported as “Complete inhibition”. In addition, the “inhibition of intrinsic pathway of coagulation (prolongation of aPTT clotting time)” value in experiment [4] is reported as “no inhibition (prolongation) of aPTT; also recorded: loses activity as an anticoagulant; also recorded: ineffective”. In [4] (listed as L26R KD1), the “inhibition of intrinsic pathway of coagulation (prolongation of aPTT clotting time)” value is given as “no effect on clotting”. Also, in experiment [5], the “reduction in blood loss” value is given as 67-70%. In addition, in the experiment with Human plasmin [6], the Ki was 6 nM and the “fold stronger binding than WT KD1” value was around 4 fold.

B4: KD1 R15K mutant (R24K in KD1 numbering) (other)
chain: B1 chain with R24K
notes: Made from KD1 by site-directed mutagenesis, with the His tag removed; also called R24K mutant
For the molecule B4, the “fold stronger binding to plasmin than WT KD1” value in the experiment with Human plasmin [2] is “two-fold different”. For the same molecule, in the experiment with Human plasmin [8], the Kd was 9 to 11 nM and 10 nM; the “fold difference of Kd against WT KD1” value worked out at 2 fold. Affinity in the experiment with Human plasmin [6] was put at a Ki of 10 nM.
